Reference: publication doi:10.1101/2024.12.30.629670
Where “and” joins values, the source holds several entries; their conditions need not be identical. Identical values can stand only once.

Target: AVRPM3^b2/c2 lacking the signal peptide, C-terminally FLAG- or HA-tagged (Blumeria graminis f.sp. tritici)
Assay: cross-linking

Substance: AVRPM3^b2/c2 lacking the signal peptide, C-terminally FLAG- or HA-tagged (natural protein)
- stoichiometry N: 2 and 3
